According to patent US20110045554A1 (University of California, published 2011):

Assays:
[1] = target: the molecule itself; assay: transmission electron microscopy; self-association into filaments
citrate synthase = assay: cell-based or functional assay

reduction of citrate synthase aggregation at 45° C. (citrate synthase): 2 :1 monomer-to-monomer stoichiometric ratio | stabilization of citrate synthase against aggregation at 45° C. (citrate synthase): 5 :1 monomer-to-monomer stoichiometric ratio
B1: Methanococcus jannaschii gamma-Prefoldin (γ-PFD) (other)
chain: MVNEVIDINEAVRAYIAQIEGLRAEIGRLDATIATLRQSLATLKSLKTLGEGKTVLVPVGSIAQVEMKVEKMDKVVVSVGQNISAELEYEEALKYIEDEIKKLLTFRLVLEQAIAELYAKIEDLIAEAQQTSEEEKAEEEENEEKAE
notes: Recombinant protein expressed in E. coli from the genomic M. jannaschii gene; It forms long filaments of identical subunits; also called γ prefoldin; Mj-γ-PFD
binding result [1]: binds
